Assays:
[1] = target: CD11c_(614-682b)-YFP/CD18 chimera on CHO cells (human) (UniProt P11215); assay: flow cytometry on cells; 2x10^5 CHO cells expressing YFP-fused integrins with different concentrations of CyaA-biotin; streptavidin-PE; mean fluorescence intensities against CyaA concentration
[2] = target: CD11b_(342-424c)/CD18 chimera on CHO cells (human) (UniProt P11215); assay: flow cytometry on cells
[3] = target: CR3 chimera with residues 686 to 1152 of CD11b replaced by the corresponding segment of CD11c, with CD18, on CHO cells (human) (UniProt P11215); assay: flow cytometry on cells
[4] = target: CD11b_(614-682c)/CD18 chimera on CHO cells (human) (UniProt P11215); assay: flow cytometry on cells
[5] = target: CR3 chimera with residues 33 to 115 of CD11b replaced by the corresponding segment of CD11c, with CD18, on CHO cells (human) (UniProt P11215); assay: flow cytometry on cells

Substance: adenylate cyclase toxin-hemolysin (CyaA) of Bordetella pertussis, intact (from UniProt P0DKX7 1-1706) (natural protein)
- fold higher CyaA binding than CD11c-YFP/CD18 [1]: 24 fold
- fold lower CyaA binding than CD11b-YFP/CD18 [1]: 1.7 fold
- CyaA binding, percent of binding to intact CD11b/CD18 [2]: 61%
- CyaA binding, percent of binding to intact CD11b/CD18 [3]: 89%
- fold decrease of CyaA binding against intact CR3 [4]: 10 fold
- CyaA binding, percent of binding to intact CD11b/CD18 [5]: 72%

Source: publication PMC4755762
